Test results as given in the domain aggregation screens of Martell et al. (2025).

experiment: soluble fraction after stress (log2 fold change); higher = more stays soluble; pooled small domains, quantitative proteomics; settings: stress: pH 4
Procedure, shortened: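 Values are log2 fold changes, and higher ones mean more of the domain stayed soluble. Each fold change reflects the soluble amount of a domain after acid stress and is taken as a measure of aggregation propensity. The stress was pH 4, applied to pooled custom libraries of small protein domains analysed by high-throughput quantitative proteomics.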

Row | Sequence | soluble fraction (log2)
1 | HMVDKTMYDRYAVDDYVRVIDGPLVGTEGRIIELDRETGNVKIEAVFFGRVTTADINFALIEKVD | -1.33
2 | HMVDLDIENYELEDILNLFRLQYNFVEADLKRAYRMALKLHPDKSGLDGEYFRFYMKAYKIVENIFNFRNR | -1.38
3 | HMVDSVIGSVGRVTVDIDNVEALGQVKLGGMEWSARSTSGDPIPAGTEVRVDRVEGVKVFVTPV | -0.203
4 | HMVDVEMLTTVSDHIEAKLLQGILENHGIPSYSVDEESGEYMRVYMGYSIFGEKIYVRASDLLAAQGYL | -1.93
5 | HMVDWTFPVLVKDVVMMGRYGHMGFLRIPGKKDFESVDNALAKVGMVEYAKQQIGELSGGQR | -0.0255
6 | HMVDYSMEDSVWNNKKEHVNEWFDANPEHEGRRVIVDGLFAIGDAQPDLRKRHWSSISVVFADLDNSPIG | -1.01
7 | HMVEDPADNQKAADAVIKKISEIGEVTESSENLIKEARASYDALTDNQKELVTNYDVLVQAEAQLENIKD | -0.703
8 | HMVEEVDYGTFMRMIEEKNIGKVEVRAGEIVFTDKDEKQIYKTGAMEDATLTQRLYESGAEFSKDV | -0.507
9 | HMVEGVSLVEIYVDENSKYNGKLLSEIPKKENTLVIMIQRGEQVIIPHGNIRLESGDMLVVSKTEI | -1.38
10 | HMVEKNALSEEIEGYVNKYGKDRSSLMPVLQAIQRKHSYINDFAQQEVARLLDIHPVEVFSVISFYSFLH | -1
11 | HMVEKRLFPQISDAGKRLDLFLAGALAISRTMVVKIIKDGGVLVNGKAAKASYRLAGDEELLVSYEEP | -0.243
12 | HMVEMPEVGVKVRIEVESHNGSTNFEGIVLHPASKGHLTLKLINGYNASYLIEEIRNLEIIDSS | -0.763
13 | HMVENATPEEREALNDIAMEAMGMVKDGKPTSAREFVQSQNLDNDQKILLWSLLDAPTRSALKTAEK | 0.299
14 | HMVEPIKAPMPGMVLKILVEPGQQIEKGQGVLILEAMKMENVLKSSAAATVKSIKVSEKSAVEKGAILVEL | -0.261
15 | HMVEQVEISILPGEYSDTISQKLLDAGLIDDKAAFSKYINDTNVDNLIQPGTFTVPKGASYEEVAKILT | -1.35
16 | HMVERRVRFTVAPGNAGLRLDLFLTAREIGLSRTQVGRAVDEGQIQVNGRPGRAGRKLKTGDVVAIVLPA | -0.0969
17 | HMVESLTDRELQILSLAAKGYTNKAIAVQLGISDRTVQNHLANTFQKLNAESRTEAVMRAVSLGLISA | -0.422
18 | HMVETVQVVGAGQDIMPGSRINYSSLHYITVPRSYFHEDMFAKNNLVVGRIARAYVAKGEPLLAASLMPK | 0.17
19 | HMVEVPYSEFLKELDAGNVKDVYVSNGESQIQFTKKDQKQWNLSYKTGPIPGDDLVKRLQNADVENFT | -0.282
20 | HMVEVTTDEITRPGAMVSGSVTFSDGVKAIWLIDEYGRPGLEPETPGYQPSESDLSEFEKHLRALLQ | -0.648
21 | HMVEVVDAEKLEERLSKVFSAAVLLEIYNENPAHGKEYAYLFTARKNAVEEMIENGQMKRETWEAK | -1.91
22 | HMVFSKEELLFNSDSLLSLYPNDNKLLETILSEKIDHAVKNNDMSMYKEILVIDPKNPLANYHLLM | 0.17
23 | HMVFTEEERAEYREKMLDAGFDLLKQYGMTHMSVAKITEAAGIGVSTFYNFFSSKEEYVYEVLQYRRRK | -0.392
24 | HMVGIVQKTFEPTGIAAEELMKTLKSDKSLDFGNVQILATPKSSTSRQVVVVSGRANDVDRVMMVLSNLDS | 0.015
25 | HMVGKIVVPHLEGKPAEMARDILARDGFKSVHEEVLPSAEFGAGRVVRTEPHAGTNVAKTDPVTIFVSVGL | -0.0761
26 | HMVGLTDLQRNVLVQIARGKSRQLISRTLKVTPAEISAALKVAQRRYRVASSTEVIVQALYDKTLSFHEIM | 0.105
27 | HMVIIPNILNKYKGLAFRQLEQVGLKIGDTIYEPNIQRDAVLRMQINGRSVQPGDQVMRFSVVDLVIG | -1.14
